Columns and labels:
Gal4-VP16 = assay: cell_activity; details: 0.5 ug Gal4 plasmid, no tTA
[1] = system: tTA (tetracycline transactivator, TetR-VP16); assay: cell_activity; details: 0.5 ug tTA plasmid, no Gal4
[2] = 0.1 without TF, 16.0 with both TFs at 0.5 ug

Row | Substance | activity (Gal4-VP16; <0.1 without TF, HEK293FT, synergy with tTA) [% ON cells] | activity ([1]; <0.1 without TF, HEK293FT, synergy with Gal4) [% ON cells] | activity (Gal4-VP16; [2]) [% ON cells] | activity [1, 2] [% ON cells]
1 | H1 hybrid promoter pT2U2T2U2 (TetO and UAS, CMV minimal promoter) | 9.2 | 3.1 |  | 
2 | H2 hybrid promoter pT2U3 (TetO and UAS, CMV minimal promoter) |  |  | 4 | 0.8

Reference: patent US20200048631
